Measurements published in patent publication US20120090043A1, “TARGETS FOR RETROVIRUS ASSOCIATED DISEASES” (priority 2009, published 2012).

B1: KLC3: human host interactor protein, Gene ID 147700, expressed from transfected ORF vector (protein)
chain: MSVQVAAPGSAGLGPERLSPEELVRQTRQVVQGLEALRAEHHGLAGHLAEALAGQGPAAGLEMLEEKQQVVSHSLEAIELGLGEAQVLLALSAHVGALEAEKQRLRSQARRLAQENVWLREELEETQRRLRASEESVAQLEEEKRHLEFLGQLRQYDPPAESQQSESPPRRDSLASLFPSEEEERKGPEAAGAAAAQQGGYEIPARLRTLHNLVIQYAGQGRYEVAVPLCRQALEDLERSSGHCHPDVATMLNILALVYRDQNKYKEATDLLHDALQIREQTLGPEHPAVAATLNNLAVLYGKRGRYREAEPLCQRALEIREKVLGADHPDVAKQLNNLALLCQNQGKFEDVERHYARALSIYEALGGPHDPNVAKTKNNLASAYLKQNKYQQAEELYKEILHKEDLPAPLGAPNTGTAGDAEQALRRSSSLSKIRESIRRGSEKLVSRLRGEAAAGAAGMKRAMSLNTLNVDAPRAPGTQFPSWHLDKAPRTLSASTQDLSPH
B2: KIF9: human host interactor protein, Gene ID 64147, expressed from transfected ORF vector (protein)
chain: MGTRKKVHAFVRVKPTDDFAHEMIRYGDDKRSIDIHLKKDIRRGVVNNQQTDWSFKLDGVLHDASQDLVYETVAKDVVSQALDGYNGTIMCYGQTGAGKTYTMMGATENYKHRGILPRALQQVFRMIEERPTHAITVRVSYLEIYNESLFDLLSTLPYVGPSVTPMTIVENPQGVFIKGLSVHLTSQEEDAFSLLFEGETNRIIASHTMNKNSSRSHCIFTIYLEAHSRTLSEEKYITSKINLVDLAGSERLGKSGSEGQVLKEATYINKSLSFLEQAIIALGDQKRDHIPFRQCKLTHALKDSLGGNCNMVLVTNIYGEAAQLEETLSSLRFASRMKLVTTEPAINEKYDAERMVKNLEKELALLKQELAIHDSLTNRTFVTYDPMDEIQIAEINSQVRRYLEGTLDEIDIISLRQIKEVFNQFRVVLSQQEQEVESTLRRKYTLIDRNDFAAISAIQKAGLVDVDGHLVGEPEGQNFGLGVAPFSTKPGKKAKSKKTFKEPLSSLARKEGASSPVNGKDLDYVSTSKTQLVPSSKDGDVKDMLSRDRETSSIEPLPSDSPKEELRPIRPDTPPSKPVAFEEFKNEQGSEINRIFKENKSILNERRKRASETTQHINAIKREIDVTKEALNFQKSLREKQGKYENKGLMIIDEEEFLLILKLKDLKKQYRSEYQDLRDLRAEIQYCQHLVDQCRHRLLMEFDIWYNESFVIPEDMQMALKPGGSIRPGMVPVNRIVSLGEDDQDKFSQLQQRVLPEGPDSISFYNAKVKIEQKHNYLKTMMGLQQAHRK
B3: KIAA1949: human host interactor protein, Gene ID 170954, expressed from transfected ORF vector (protein)
chain: MATIPDWKLQLLARRRQEEASVRGREKAERERLSQMPAWKRGLLERRRAKLGLSPGEPSPVLGTVEAGPPDPDESAVLLEAIGPVHQNRFIRQERQQQQQQQQRSEELLAERKPGPLEARERRPSPGEMRDQSPKGRESREERLSPRETRERRLGIGGAQELSLRPLEARDWRQSPGEVGDRSSRLSEAWKWRLSPGETPERSLRLAESREQSPRRKEVESRLSPGESAYQKLGLTEAHKWRPDSRESQEQSLVQLEATEWRLRSGEERQDYSEECGRKEEWPVPGVAPKETAELSETLTREAQGNSSAGVEAAEQRPVEDGERGMKPTEGWKWTLNSGKAREWTPRDIEAQTQKPEPPESAEKLLESPGVEAGEGEAEKEEAGAQGRPLRALQNCCSVPSPLPPEDAGTGGLRQQEEEAVELQPPPPAPLSPPPPAPTAPQPPGDPLMSRLFYGVKAGPGVGAPRRSGHTFTVNPRRSVPPATPATPTSPATVDAAVPGAGKKRYPTAEEILVLGGYLRLSRSCLAKGSPERHHKQLKISFSETALETTYQYPSESSVLEELGPEPEVPSAPNPPAAQPDDEEDEEELLLLQPELQGGLRTKALIVDESCRR

Test system: HTLV-1 LTR promoter transactivation by HTLV-1 Tax
Experiment: Transactivation assay, HTLV-1 LTR luciferase reporter with HTLV-1 Tax
Type: cell-based
Conditions: HEK293 cells co-transfected with pHTLV1LTR-Luc, HTLV-1 Tax and the human ORF; relative luciferase activity 24 h post-transfection; positive if >=2 or <=0.5 and p<0.05
Excerpt: Twenty-four hours post-transfection, cells were washed three times with PBS, lysed and luciferase activities determined from two independent transfection experiments in triplicate. We computed a paired t-test to assess the difference of the means between samples with and without the human interactor. For a trial to be considered positive, the relative luciferase activities has to be >=2 or <=0.5, and the p-value of the t-test<0.05.
Expression vectors encoding human ORFs and HIV-1 Tat or HTLV-1 Tax proteins were tested in a transactivation reporter assay against reporter plasmids harboring HIV-1 or HTLV-1 viral promoter sequences cloned upstream of the luciferase reporter gene. […] Wherever not expressly specified, constructs used herein were generally made by sub-cloning entry clones from the ORFeome V3.1 into suitable destination vectors.

Row | Molecule | HTLV_LTR transactiv. [fold change]
1 | B1 | 0.31
2 | B2 | 0.37
3 | B3 | 0.35
